According to patent CN111110862A:

B1: anti-hCLDN18.2鼠源抗体mab5b (antibody, human IgG1, kappa, V domains shown)
VH: QVQLQQSGAELIGPGTSVKVSCKASGYAFSNYLIEWVKQRPEQGLEWIGLINPGSGGTNYNEKFKGKATLTADKSSSTAYMQLSSLTSDDSAVYFCARVYYGNSFAYWGQGTLVTVSA
VL: DIVMTQSPSSLTVTAGEKVTMSCKSSQSLLNSGNQKNYLTWYQQKPGQPPKLLIYWASTRESGVPDRFTGSGSGTHFTLTISSVQAEDLAVYYCQNDYFYPFTFGSGTKLEKKR
B2: 杂交瘤单克隆细胞株C13C1F1D3G6所分泌的抗体 (antibody, V domains shown)
VH: QVQLQQSGAELIGPGTSVKVSCKASGYAFSNYLIEWVKQRPEQGLEWIGLINPGSGGTNYNEKFKGKATLTADKSSSTAYMQLSSLTSDDSAVYFCARVYYGNSFAYWGQGTLVTVSA
VL: DIVMTQSPSSLTVTAGEKVTMSCKSSQSLLNSGNQKNYLTWYQQKPGQPPKLLIYWASTRESGVPDRFTGSGSGTHFTLTISSVQAEDLAVYYCQNDYFYPFTFGSGTKLEKK

What was measured:
[1] = biological target: 人CLDN18.2(hCLDN18.2) (human) (UniProt P56856); assay: cell ELISA on fixed hCLDN18.2+cell
[2] = biological target: 人CLDN18.2(hCLDN18.2) (human) (UniProt P56856); assay: cell ELISA on fixed hCLDN18.2+cell, plateau reading
[3] = biological target: 人CLDN18.2(hCLDN18.2) (human) (UniProt P56856); assay: cell ELISA, hybridoma supernatant on hCLDN18.2+cell

Binder | EC50 [1] [nM] | Emax higher than Ref [1] [%] | fold better binding (EC50) than Ref [1] [fold] | Emax [2] | ELISA读值 [3]
B1 | 0.115 | > 36 | > 1 | 1.92 | –
B2 | – | – | – | – | 0.889
